The labels stand for the following.
B1: Partitioning defective 3 homolog (Homo sapiens), Q8TEW0 (parent)
chain: MKVTVCFGRTRVVVPCGDGHMKVFSLIQQAVTRYRKAIAKDPNYWIQVHRLEHGDGGILDLDDILCDVADDKDRLVAVFDEQDPHHGGDGTSASSTGTQSPEIFGSELGTNNVSAFQPYQATSEIEVTPSVLRANMPLHVRRSSDPALIGLSTSVSDSNFSSEEPSRKNPTRWSTTAGFLKQNTAGSPKTCDRKKDENYRSLPRDTSNWSNQFQRDNARSSLSASHPMVGKWLEKQEQDEDGTEEDNSRVEPVGHADTGLEHIPNFSLDDMVKLVEVPNDGGPLGIHVVPFSARGGRTLGLLVKRLEKGGKAEHENLFRENDCIVRINDGDLRNRRFEQAQHMFRQAMRTPIIWFHVVPAANKEQYEQLSQSEKNNYYSSRFSPDSQYIDNRSVNSAGLHTVQRAPRLNHPPEQIDSHSRLPHSAHPSGKPPSAPASAPQNVFSTTVSSGYNTKKIGKRLNIQLKKGTEGLGFSITSRDVTIGGSAPIYVKNILPRGAAIQDGRLKAGDRLIEVNGVDLVGKSQEEVVSLLRSTKMEGTVSLLVFRQEDAFHPRELNAEPSQMQIPKETKAEDEDIVLTPDGTREFLTFEVPLNDSGSAGLGVSVKGNRSKENHADLGIFVKSIINGGAASKDGRLRVNDQLIAVNGESLLGKTNQDAMETLRRSMSTEGNKRGMIQLIVARRISKCNELKSPGSPPGPELPIETALDDRERRISHSLYSGIEGLDESPSRNAALSRIMGESGKYQLSPTVNMPQDDTVIIEDDRLPVLPPHLSDQSSSSSHDDVGFVTADAGTWAKAAISDSADCSLSPDVDPVLAFQREGFGRQSMSEKRTKQFSDASQLDFVKTRKSKSMDLGIADETKLNTVDDQKAGSPSRDVGPSLGLKKSSSLESLQTAVAEVTLNGDIPFHRPRPRIIRGRGCNESFRAAIDKSYDKPAVDDDDEGMETLEEDTEESSRSGRESVSTASDQPSHSLERQMNGNQEKGDKTDRKKDKTGKEKKKDRDKEKDKMKAKKGMLKGLGDMFRFGKHRKDDKIEKTGKIKIQESFTSEEERIRMKQEQERIQAKTREFRERQARERDYAEIQDFHRTFGCDDELMYGGVSSYEGSMALNARPQSPREGHMMDALYAQVKKPRNSKPSPVDSNRSTPSNHDRIQRLRQEFQQAKQDEDVEDRRRTYSFEQPWPNARPATQSGRHSVSVEVQMQRQRQEERESSQQAQRQYSSLPRQSRKNASSVSQDSWEQNYSPGEGFQSAKENPRYSSYQGSRNGYLGGHGFNARVMLETQELLRQEQRRKEQQMKKQPPSEGPSNYDSYKKVQDPSYAPPKGPFRQDVPPSPSQVARLNRLQTPEKGRPFYS

The experiment covers variants of B1. The conditions noted are these: with csk_human CSK.
Consider Y1127F, for which the “effect of a mutation on the interaction” value was “disrupting interaction”.

Source of the values: IntAct's records for PubMed 17053785.
